These are literature values, as cited in US20180296685A1, “TARGETED CONSTRUCTS AND FORMULATIONS THEREOF” (TARVEDA THERAPEUTICS, INC., priority 2017, published 2018).

The conditions of the data set: transthyretin, serum protein.

Consider Transthyretin, for which the in vivo half-life entry was “around 48 h”.
